Laboratory results taken from patent US20260049138A1 (Chugai, published 2026).
Substitutions are numbered along the chain they refer to. Values belong to the binder of their own block, whether it stands above or below them.

Columns and labels:
CD3ε homodimer protein [1] = target: T1, CD3ε homodimer protein (human, UniProt P07766 23-126, limits assumed); assay: SPR
T1 construct: also called CD3 (CD3ε)
T1 sequence (P07766 23-126 limits assumed): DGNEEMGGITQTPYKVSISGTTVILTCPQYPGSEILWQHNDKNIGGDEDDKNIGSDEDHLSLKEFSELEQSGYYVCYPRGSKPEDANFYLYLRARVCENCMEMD
Description: Each one-amino acid altered form constructed, expressed, and purified in the paragraph (6-2) was evaluated using Biacore T200 (GE Healthcare Japan Corp.). An appropriate amount of CD3ε homodimer protein was immobilized onto Sensor chip CM4 (GE Healthcare Japan Corp.) by the amine coupling method. Then, the antibody having an appropriate concentration was injected thereto as an analyte and allowed to interact with the CD3ε homodimer protein on the sensor chip. Then, the sensor chip was regenerated by the injection of 10 mmol/L glycine-HCl (pH 1.5). The assay was conducted at 25° C., and HBS-EP+ (GE Healthcare Japan Corp.) was used as a running buffer. […] Each parameter was calculated using Biacore T200 Evaluation Software (GE Healthcare Japan Corp.).
Specifically, when the amount of the GLS3000-containing antibody bound was defined as X and the amount of the L chain one-amino acid altered form bound was defined as Y, a value of Z (ratio of amounts bound)=Y/X was used.

human CD154 = target: T2, human CD154 (human, UniProt P29965 113-261, limits assumed, biotin-labeled); assay: ECL competition, CD3ε[+]: CD3ε homodimer added as competitor [2]
T2 construct: also called biotin-labeled human CD154; biotinylated human CD154
T2 sequence (looked up): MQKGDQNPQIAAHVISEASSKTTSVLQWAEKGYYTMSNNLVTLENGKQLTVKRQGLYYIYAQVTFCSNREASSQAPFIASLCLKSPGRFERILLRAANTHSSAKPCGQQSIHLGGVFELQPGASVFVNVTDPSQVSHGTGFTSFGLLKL
Description: Next, each obtained IgG was evaluated for its binding to CD3 and human CD154 at the same time by the competition method (electrochemiluminescence method (ECL method)).
A TBST solution containing 0.5% BSA (referred to as a blocking solution; the TBST solution was TBS (manufactured by Takara Bio Inc.) supplemented with 0.1% Tween 20) was added at 150 μL/well to streptavidin plate (MSD K.K.), and the plate was incubated at room temperature for 1 hour or longer. After removal of the blocking solution, each well was washed three times with 250 μL of a TBST solution. The antibody-antigen complex solution was added thereto at 50 μL/well, and the plate was incubated at room temperature for 1 hour so that the biotinylated antigen-antibody-detection sulfo-tag antibody complex solution bound via the biotinylated antigen to the streptavidin plate. After removal of the antibody-antigen complex solution, each well was washed three times with a TBST solution, and a solution of 4×READ buffer (MSD K.K.) diluted 2-fold with water was added thereto at 150 μL/well, followed by the detection of the luminescence signal of the sulfo-tag using Sector Imager 2400 (MSD K.K.).

CD3ε homodimer protein [2] = target: T3, CD3ε homodimer protein (human, UniProt P07766 23-126, limits assumed); assay: SPR (Biacore T200), one-arm antibody as analyte over immobilised CD3ε homodimer protein, single-cycle kinetics
T3 construct: also called human CD3ε homodimer protein
T3 sequence (P07766 23-126 limits assumed): as the sequence (P07766 23-126 limits assumed) above

relative ECL reaction (to no antigen coating) (human CD154): 10
B2: 154R5F08#3 one-arm antibody (antibody, human IgG1, kappa, L234A L235A, N297A)
heavy: QVQLVESGGGLVQPGRSLRLSCAASGFTFSNAWMHWVRQAPGKGLEWVAQIKDKGNQYATYYAESVKGRYTISRDDSKNSIYLQMNSLKTEDTAVYYCRYVHYGTYFFALPAFGVDIWGQGTTVTVSSASTKGPSVFPLAPSSKSTSGGTAALGCLVKDYFPEPVTVSWNSGALTSGVHTFPAVLQSSGLYSLSSVVTVPSSSLGTQTYICNVNHKPSNTKVDKKVEPKSCDKTHTCPPCPAPEAAGGPSVFLFPPKPKDTLMISRTPEVTCVVVDVSHEDPEVKFNWYVDGVEVHNAKTKPREEQYASTYRVVSVLTVLHQDWLNGKEYKCKVSNKALPAPIEKTISKAKGQPREPQVYTLPPSRCELTKNQVSLSCAVKGFYPSDIAVEWESNGQPENNYKTTPPVLDSDGSFFLVSKLTVDKSRWQQGNVFSCSVMHEALHNHYTQKSLSLSPDYKDDDDK
chain: EPKSSDKTHTCPPCPAPELLGGPSVFLFPPKPKDTLMISRTPEVTCVVVDVSHEDPEVKFNWYVDGVEVHNAKTKPREEQYNSTYRVVSVLTVLHQDWLNGKEYKCKVSNKALPAPIEKTISKAKGQPREPQVCTLPPSRDELTKNQVSLWCLVKGFYPSDIAVEWESNGQPENNYKTTPPVLDSDGSFFLYSKLTVDKSRWQQGNVFSCSVMHEALHNRYTQKSLSLSP
light: DIVMTQSPLSLPVTPGEPASISCRSSQSLVHSNRNTYLHWYQQKPGQAPRLLIYKVSNRFSGVPDRFSGSGSGTDFTLKISRVEAEDVGVYYCGQGTQVPYTFGQGTKLEIKRTVAAPSVFIFPPSDEQLKSGTASVVCLLNNFYPREAKVQWKVDNALQSGNSQESVTEQDSKDSTYSLSSTLTLSKADYEKHKVYACEVTHQGLSSPVTKSFNRGEC
notes: As m48

Kd (CD3ε homodimer protein [2]): 31 nM
B3: One-arm antibody: NNS6f51 (CE115HA340 with GFLVLW inserted between Kabat positions 99 and 100) / Kn010G3 / GLS3000-kappa (antibody)
chain 1: QVQLVESGGGLVQPGRSLRLSCAASGFTFSNAWMHWVRQAPGKGLEWVAQIKDKSNNYATYYAESVKGRFTISRDDSKNSIYLQMNSLKTEDTAVYYCRYVHYAAGFLVLWYYGVDAWGQGTTVTVSSASTKGPSVFPLAPSSKSTSGGTAALGCLVKDYFPEPVTVSWNSGALTSGVHTFPAVLQSSGLYSLSSVVTVPSSSLGTQTYICNVNHKPSNTKVDKKVEPKSCDKTHTCPPCPAPEAAGGPSVFLFPPKPKDTLMISRTPEVTCVVVDVSHEDPEVKFNWYVDGVEVHNAKTKPREEQYASTYRVVSVLTVLHQDWLNGKEYKCKVSNKALPAPIEKTISKAKGQPREPQVYTLPPSRCELTKNQVSLSCAVKGFYPSDIAVEWESNGQPENNYKTTPPVLDSDGSFFLVSKLTVDKSRWQQGNVFSCSVMHEALHNHYTQKSLSLSPDYKDDDDK
chain 2: B2 chain
chain 3: B2 light

KD ratio to GLS3000 (CD3ε homodimer protein [1]): 0.98
B6: CE115HA000 / GLS3000 one-arm antibody (unaltered) (antibody, human IgG1, kappa, L234A L235A, N297A)
heavy: QVQLVESGGGVVQPGRSLRLSCAASGFTFSNAWMHWVRQAPGKGLEWVAQIKAKSNNYATYYAESVKGRFTISRDDSKNSLYLQMNSLKTEDTAVYYCRYVHYGAYYGVDAWGQGTTVTVSSASTKGPSVFPLAPSSKSTSGGTAALGCLVKDYFPEPVTVSWNSGALTSGVHTFPAVLQSSGLYSLSSVVTVPSSSLGTQTYICNVNHKPSNTKVDKKVEPKSCDKTHTCPPCPAPEAAGGPSVFLFPPKPKDTLMISRTPEVTCVVVDVSHEDPEVKFNWYVDGVEVHNAKTKPREEQYASTYRVVSVLTVLHQDWLNGKEYKCKVSNKALPAPIEKTISKAKGQPREPQVYTLPPSRCELTKNQVSLSCAVKGFYPSDIAVEWESNGQPENNYKTTPPVLDSDGSFFLVSKLTVDKSRWQQGNVFSCSVMHEALHNHYTQKSLSLSPDYKDDDDK
chain: B2 chain
light: B2 light
notes: All L chain altered forms m3-m332 have this format; for them only VH and VL are written out; also called GLS3000-containing antibody

Second part, the binder before the results:

B1: GLS3000 L33P (antibody, name in Kabat numbering, V domains shown)
VH: QVQLVESGGGVVQPGRSLRLSCAASGFTFSNAWMHWVRQAPGKGLEWVAQIKAKSNNYATYYAESVKGRFTISRDDSKNSLYLQMNSLKTEDTAVYYCRYVHYGAYYGVDAWGQGTTVTVSS
VL: DIVMTQSPLSLPVTPGEPASISCRSSQSLVHSNRNTYPHWYQQKPGQAPRLLIYKVSNRFSGVPDRFSGSGSGTDFTLKISRVEAEDVGVYYCGQGTQVPYTFGQGTKLEIK
notes: one-arm, rest as m2
KD ratio to GLS3000 (CD3ε homodimer protein [1]): 32.7

B4: One-arm antibody: NNS6f54 (CE115HA340 with FEWVGW inserted between Kabat positions 99 and 100) / Kn010G3 / GLS3000-kappa (antibody)
chain 1: B3 chain 1 with G106F, F107E, L108W, L110G
chain 2: B2 chain
chain 3: B2 light
Kd (CD3ε homodimer protein [2]): 29 nM

B5: One-arm antibody: NNS6f47 (CE115HA340 with HFMWWG inserted between Kabat positions 99 and 100) / Kn010G3 / GLS3000-kappa (antibody)
chain 1: B3 chain 1 with G106H, L108M, V109W, L110W, W111G
chain 2: B2 chain
chain 3: B2 light
Kd (CD3ε homodimer protein [2]): 31 nM
